The results in this text go back to article PMC6901335.

The assay has as its target Recombinant MFG-E8 Protein (unlabelled, bound to NL4.3-GFP VLPs) (not stated (human or mouse recombinant protein bought)) (UniProt P21956). Kind of assay: flow cytometry of viral-like particles; 1 × 10^4 NL4.3-GFP VLPs in 20 μl of 1% BSA/PBS or 1 × HBSS (1 mM Ca2+, 2 mM Mg2+, 1 mM Mn2+, 0.5% fatty acid free BSA) with MFG-E8 (5 μg/ml) and integrin αvβ3 (5 μg/ml) on ice for 30 min; bound proteins detected by αv and MFG-E8 antibodies. A general note: In flow cytometry, cells or beads pass a laser one at a time.
Sequence of UniProt P21956 (P21956 23-463): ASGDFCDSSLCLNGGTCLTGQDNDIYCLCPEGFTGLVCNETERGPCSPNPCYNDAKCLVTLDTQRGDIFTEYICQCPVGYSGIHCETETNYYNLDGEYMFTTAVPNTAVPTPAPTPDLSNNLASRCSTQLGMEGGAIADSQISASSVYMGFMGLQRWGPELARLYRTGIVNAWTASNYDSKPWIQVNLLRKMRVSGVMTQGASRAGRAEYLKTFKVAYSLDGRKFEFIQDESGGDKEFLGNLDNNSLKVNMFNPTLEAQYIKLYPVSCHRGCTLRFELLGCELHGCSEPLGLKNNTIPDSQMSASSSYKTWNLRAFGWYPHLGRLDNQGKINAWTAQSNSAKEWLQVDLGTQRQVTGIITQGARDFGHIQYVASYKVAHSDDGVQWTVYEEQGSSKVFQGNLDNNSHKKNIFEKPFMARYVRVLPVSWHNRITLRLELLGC

With “Recombinant Human Integrin alpha V beta 3 Protein (from UniProt P06756 31-1048; P05106 27-718) (receptor)”, the percent of VLPs αvβ3/MFG-E8 positive was found to be 80%.
